According to patent US20230203138A1 (TRUSTEES OF COLUMBIA UNIVERSITY IN THE CITY OF NEW YORK, published 2023):

B1: monoclonal antibody 2-7 (antibody, V domains shown)
VH: QITLKESGPTLVKPTQTLTLTCTFSGFSLSTSGVGVGWIRQPPGKALEWLALIYWDDDKRYSPSLKSRLTITKDTSKNQVVLTMTNMDPVDTATYYCAHHKIERIFDYWGQGTLVTVSS
VL: QSALAQPASVSGSPGQSITISCTGTSSDVGAYNYVSWYQQHPGKAPKLMIYDVSKRPSGVSNRFSGSKSGNTASLTISGLQAEDEADYYCSSYTTSSTVFGGGTKLTVL
B2: monoclonal antibody 2-4 (antibody, V domains shown)
VH: QVQLVQSGAEVKKPGASVKVSCKASGYTFTGYYMHWVRQAPGQGLEWMGWINPNSGGTNYTQMFQGRVTMTRDTSISTAYMEVSRLRSDDTAVYYCARDRSWAVVYYYMDVWGKGTTVTVSS
VL: QSALTQPPSASGSPGQSVTISCTGTSSDVGGYNYVSWYQQHPGKAPKLMIYEVSKRPSGVPDRFSGSKSGNTASLTVSGLQAEDEADYYCSSYAGSNNLVFGGGTKLTVL
B3: monoclonal antibody 4-20 (antibody, V domains shown)
VH: QVQLLQSGAEVKKPGASVKVSCKASGYSFTSYYMHWVRQAPGQGLEWMGIINPSGGGTTYAQKFQGRVTMTRDTSTSTVYMELSSLRSEDTAVYYCARPGGGSYQEFDYWGQGTLVTVSS
VL: DIQMTQSPSSLSASVGDRVTITCRASQSISSYLNWYQQKPGKAPKLLISAASSLQSGVPSRFSGSGSGTDFTLTISSLQPEDFATYYCQQSYNTLQVTFGGGTKVEIK
B4: monoclonal antibody 1-20 (antibody, V domains shown)
VH: EVQLVESGGGLIQPGGSLRLSCAASGLTVSSNYMSWVRQAPGKGLEWVSVIYSGGSTFYADSVKGRFTISRDNSKNTLYLQMNSLRAEDTAVYYCARDLFYYGMDVWGQGTTVTVSS
VL: DIQLTQSPSFLSASVGDRVTITCRASQGISSYLAWYQQKPGKAPKLLIYAASTLQSGVPSRFSGSGSGTEFTLTISSLQPEDFATYYCQQLNSYPCFGPGTKVDIK
B5: monoclonal antibody 2-30 (antibody, V domains shown)
VH: QVQLVESGGGVVQPGRSLRLSCAASGFTFSSYTMHWVRQAPGKGLEWVAAISYDGNNKYYADSVKGRFTISRDNSKNTLYLQMNSLRAEDTAVYYCARSILYGGGMDVWGQGTTVTVSS
VL: DIQLTQSPSSLSASVGDRVTITCRASQGISSYLAWYQQKPGQAPKLLIYAASTLQSGVPSRFSGSGSGTDFTLTISSLQPEDFATYYCQQLNSYPLTFGGGTKVEIK

What was measured:
[1] = target: SARS-CoV-2 receptor binding domain (RBD) (SARS-CoV-2, UniProt P0DTC2 319-591); assay: ELISA (FIG. 10)
SARS-CoV Spike trimer = SARS-CoV Spike trimer (SARS-CoV, UniProt P59594 14-1190); assay: SPR (FIG. 37D)

Row | Binder | binding result [1] | binding result (SARS-CoV Spike trimer)
1 | B1 | binds | 
2 | B2 |  | no binding
3 | B3 | binds | 
4 | B4 | binds | 
5 | B5 | binds | 
